# Experimental data as given in article PMC11405040, “PRMT5-mediated FUBP1 methylation accelerates prostate cancer progression” (The Journal of Clinical Investigation, 2024).
# Biological target: T1, FLAG-PRMT5 (UniProt O14744 1-637)
# T1 construct: PRMT5, wild type; Enriched from HEK293T lysate by one FLAG step; cellular partners such as MEP50 may have come along (surmise); also called FLAG-PRMT5^WT; FLAG-tagged PRMT5; source: HEK293T, transfected, immunopurified on FLAG beads and eluted with FLAG peptide
# T1 sequence (O14744 whole entry): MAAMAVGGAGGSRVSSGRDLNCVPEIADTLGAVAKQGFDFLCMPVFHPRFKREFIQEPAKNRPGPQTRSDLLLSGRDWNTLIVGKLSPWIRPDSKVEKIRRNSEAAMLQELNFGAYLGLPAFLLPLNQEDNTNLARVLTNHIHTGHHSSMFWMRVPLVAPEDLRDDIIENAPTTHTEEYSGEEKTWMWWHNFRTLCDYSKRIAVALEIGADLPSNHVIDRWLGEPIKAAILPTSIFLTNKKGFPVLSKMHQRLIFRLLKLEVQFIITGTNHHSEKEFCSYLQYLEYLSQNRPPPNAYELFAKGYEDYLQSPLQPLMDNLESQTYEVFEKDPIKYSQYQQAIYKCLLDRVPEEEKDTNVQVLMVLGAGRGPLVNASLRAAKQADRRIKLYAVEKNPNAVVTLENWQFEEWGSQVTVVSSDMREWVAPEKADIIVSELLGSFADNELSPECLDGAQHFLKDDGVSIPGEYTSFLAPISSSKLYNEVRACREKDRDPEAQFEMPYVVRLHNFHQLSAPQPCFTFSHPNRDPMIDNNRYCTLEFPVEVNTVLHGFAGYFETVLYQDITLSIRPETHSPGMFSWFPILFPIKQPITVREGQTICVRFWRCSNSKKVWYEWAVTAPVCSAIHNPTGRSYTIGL
# Assay: pull-down; His-FUBP1 (from E. coli) and FLAG-PRMT5 (enriched from HEK293T lysate) in vitro, with the PUBLISH peptide as competitor
# Settings: both partners purified
binder,measurement,value
"GPGPGGRGRGRGQGN (peptide, UniProt Q96AE4 353-367, looked up, FUBP1 amino acids 353-367, with R359/R361/R363; For cells it was delivered as BPAE/peptide nanocomplexes; also called PUBLISH^WT; source: synthetic peptide) [PRMT5-mediated FUBP1 methylation abolishing (PUBLISH) peptide]",binding result,binds
